Data on 9 variants can be found in the supplement of paper PMC10266784.

The chains are these.
B1: library; numbered along this chain (parent)
chain: MAAAAAAAAEQQSSNGPVKKSMREKAVERRSVNKEHNSNFKAGYIPIDEDRLHKTGLRGRKGNLAICVIILLFILAVINLIITLVIWAVIRIGPNGCDSMEFHESGLLRFKQVSDMGVIHPLYKSTVGGRRNENLVITGNNQPIVFQQGTTKLSVENNKTSITSDIGMQFFDPRTQNILFSTDYETHEFHLPSGVKSLNVQKASTERITSNATSDLNIKVDGRAIVRGNEGVFIMGKTIEFHMGGNMELKAENSIILNGSVMVSTTRLPSSSSGDQLGSGDWVRYKLCMCADGTLFKVQVTSQNMGCQISDNPCGNTH

The variants in the series derive from B1. Description: SGCB cell-surface expression functional score (HA stain, bin4 vs bin1, normalised to synonymous) (log10 ratio); higher = more cell-surface SGCB (functional). On the procedure:
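Deep mutational scan of full-length human SGCB (YFP-SGCB-HA, NNN codon sublibraries A-F) delivered by lentivirus at low MOI into ADG-HEK293 cells stably expressing SGCA, SGCD and SGCG. YFP-positive cells were stained for surface HA on unpermeabilized cells and FACS-sorted into bins. The functional score is log10(frequency in high bin 4 / frequency in low bin 1), normalised per chunk so that synonymous variants have mean 0 and SD 0.5. Scores are the median over codons and over duplicate biological replicates; scores below -0.5 are called non-functional. Scale: negative means deleterious.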
Consider MAAAAAAAAEQQSSNGPVKKSMREKAVERRSVNKEHNSNFKAGYIPIDEDRLHWTGLRGRKGNLAICVIILLFILAVINLIITLVIWAVIRIGPNGCDSMEFHESGLLRFKQVSDMGVIHPLYKSTVGGRRNENLVITGNNQPIVFQQGTTKLSVENNKTSITSDIGMQFFDPRTQNILFSTDYETHEFHLPSGVKSLNVQKASTERITSNATSDLNIKVDGRAIVRGNEGVFIMGKTIEFHMGGNMELKAENSIILNGSVMVSTTRLPSSSSGDQLGSGDWVRYKLCMCADGTLFKVQVTSQNMGCQISDNPCGNTH [K54W], for which the “SGCB cell-surface expression functional score (log10)” value is 0.69.

Take MAAAAAAAAEQQSSNGPVKKSMREKAVERRSVNKEHNSNFKAGYIPIDEDRLHYTGLRGRKGNLAICVIILLFILAVINLIITLVIWAVIRIGPNGCDSMEFHESGLLRFKQVSDMGVIHPLYKSTVGGRRNENLVITGNNQPIVFQQGTTKLSVENNKTSITSDIGMQFFDPRTQNILFSTDYETHEFHLPSGVKSLNVQKASTERITSNATSDLNIKVDGRAIVRGNEGVFIMGKTIEFHMGGNMELKAENSIILNGSVMVSTTRLPSSSSGDQLGSGDWVRYKLCMCADGTLFKVQVTSQNMGCQISDNPCGNTH [K54Y]: the “SGCB cell-surface expression functional score (log10)” value came to 0.29.

With MAAAAAAAAEQQSSNGPVKKSMREKAVERRSVNKEHNSNFKAGYIPIDEDRLHVTGLRGRKGNLAICVIILLFILAVINLIITLVIWAVIRIGPNGCDSMEFHESGLLRFKQVSDMGVIHPLYKSTVGGRRNENLVITGNNQPIVFQQGTTKLSVENNKTSITSDIGMQFFDPRTQNILFSTDYETHEFHLPSGVKSLNVQKASTERITSNATSDLNIKVDGRAIVRGNEGVFIMGKTIEFHMGGNMELKAENSIILNGSVMVSTTRLPSSSSGDQLGSGDWVRYKLCMCADGTLFKVQVTSQNMGCQISDNPCGNTH [K54V], the “SGCB cell-surface expression functional score (log10)” value came to 0.08.

MAAAAAAAAEQQSSNGPVKKSMREKAVERRSVNKEHNSNFKAGYIPIDEDRLHTTGLRGRKGNLAICVIILLFILAVINLIITLVIWAVIRIGPNGCDSMEFHESGLLRFKQVSDMGVIHPLYKSTVGGRRNENLVITGNNQPIVFQQGTTKLSVENNKTSITSDIGMQFFDPRTQNILFSTDYETHEFHLPSGVKSLNVQKASTERITSNATSDLNIKVDGRAIVRGNEGVFIMGKTIEFHMGGNMELKAENSIILNGSVMVSTTRLPSSSSGDQLGSGDWVRYKLCMCADGTLFKVQVTSQNMGCQISDNPCGNTH [K54T]: the “SGCB cell-surface expression functional score (log10)” value is 0.27.

MAAAAAAAAEQQSSNGPVKKSMREKAVERRSVNKEHNSNFKAGYIPIDEDRLHSTGLRGRKGNLAICVIILLFILAVINLIITLVIWAVIRIGPNGCDSMEFHESGLLRFKQVSDMGVIHPLYKSTVGGRRNENLVITGNNQPIVFQQGTTKLSVENNKTSITSDIGMQFFDPRTQNILFSTDYETHEFHLPSGVKSLNVQKASTERITSNATSDLNIKVDGRAIVRGNEGVFIMGKTIEFHMGGNMELKAENSIILNGSVMVSTTRLPSSSSGDQLGSGDWVRYKLCMCADGTLFKVQVTSQNMGCQISDNPCGNTH [K54S]: the “SGCB cell-surface expression functional score (log10)” value amounted to 0.14.

As for MAAAAAAAAEQQSSNGPVKKSMREKAVERRSVNKEHNSNFKAGYIPIDEDRLHKKGLRGRKGNLAICVIILLFILAVINLIITLVIWAVIRIGPNGCDSMEFHESGLLRFKQVSDMGVIHPLYKSTVGGRRNENLVITGNNQPIVFQQGTTKLSVENNKTSITSDIGMQFFDPRTQNILFSTDYETHEFHLPSGVKSLNVQKASTERITSNATSDLNIKVDGRAIVRGNEGVFIMGKTIEFHMGGNMELKAENSIILNGSVMVSTTRLPSSSSGDQLGSGDWVRYKLCMCADGTLFKVQVTSQNMGCQISDNPCGNTH [T55K], the “SGCB cell-surface expression functional score (log10)” value was -0.06.

For the variant MAAAAAAAAEQQSSNGPVKKSMREKAVERRSVNKEHNSNFKAGYIPIDEDRLHKFGLRGRKGNLAICVIILLFILAVINLIITLVIWAVIRIGPNGCDSMEFHESGLLRFKQVSDMGVIHPLYKSTVGGRRNENLVITGNNQPIVFQQGTTKLSVENNKTSITSDIGMQFFDPRTQNILFSTDYETHEFHLPSGVKSLNVQKASTERITSNATSDLNIKVDGRAIVRGNEGVFIMGKTIEFHMGGNMELKAENSIILNGSVMVSTTRLPSSSSGDQLGSGDWVRYKLCMCADGTLFKVQVTSQNMGCQISDNPCGNTH [T55F], the “SGCB cell-surface expression functional score (log10)” value was 0.18.

For MAAAAAAAAEQQSSNGPVKKSMREKAVERRSVNKEHNSNFKAGYIPIDEDRLHKAGLRGRKGNLAICVIILLFILAVINLIITLVIWAVIRIGPNGCDSMEFHESGLLRFKQVSDMGVIHPLYKSTVGGRRNENLVITGNNQPIVFQQGTTKLSVENNKTSITSDIGMQFFDPRTQNILFSTDYETHEFHLPSGVKSLNVQKASTERITSNATSDLNIKVDGRAIVRGNEGVFIMGKTIEFHMGGNMELKAENSIILNGSVMVSTTRLPSSSSGDQLGSGDWVRYKLCMCADGTLFKVQVTSQNMGCQISDNPCGNTH [T55A], the “SGCB cell-surface expression functional score (log10)” value is -0.43.

As for MAAAAAAAAEQQSSNGPVKKSMREKAVERRSVNKEHNSNFKAGYIPIDEDRLHKCGLRGRKGNLAICVIILLFILAVINLIITLVIWAVIRIGPNGCDSMEFHESGLLRFKQVSDMGVIHPLYKSTVGGRRNENLVITGNNQPIVFQQGTTKLSVENNKTSITSDIGMQFFDPRTQNILFSTDYETHEFHLPSGVKSLNVQKASTERITSNATSDLNIKVDGRAIVRGNEGVFIMGKTIEFHMGGNMELKAENSIILNGSVMVSTTRLPSSSSGDQLGSGDWVRYKLCMCADGTLFKVQVTSQNMGCQISDNPCGNTH [T55C], the “SGCB cell-surface expression functional score (log10)” value was found to be 0.27.
